Measurements from US20140212425A1.
One block for each molecule: values may come before it.

Experiments:
[1] = target: CD20 on cells (Daudi cells, B cells in PBMCs) (human) (UniProt P11836); assay: cell-based or functional assay
[2] = target: Soluble single-chain FcRn (extracellular domain of the human FcRn heavy chain fused with β2-microglobulin via a flexible peptide linker) (human) (UniProt P55899); assay: SPR (BIACORE X), scFcRn amine-coupled to CM5 chip, antibody 25-400 nM as analyte, pH 6.0, two-state reaction model; Run 2
[3] = target: Soluble single-chain FcRn (extracellular domain of the human FcRn heavy chain fused with β2-microglobulin via a flexible peptide linker) (human) (UniProt P55899); assay: SPR (BIACORE X), scFcRn amine-coupled to CM5 chip, antibody 25-400 nM as analyte, pH 6.0, two-state reaction model; Run 1
[4] = target: Soluble single-chain FcRn (extracellular domain of the human FcRn heavy chain fused with β2-microglobulin via a flexible peptide linker) (human) (UniProt P55899); assay: SPR (BIACORE X), scFcRn on CM5 chip, pH 6.0, two-state reaction model; mean of 3 runs, S.D. 0.0024
[5] = target: Soluble single-chain FcRn (extracellular domain of the human FcRn heavy chain fused with β2-microglobulin via a flexible peptide linker) (human) (UniProt P55899); assay: SPR (BIACORE X), scFcRn on CM5 chip, pH 6.0, two-state reaction model; mean of 3 runs, S.D. 21.5
[6] = target: Soluble single-chain FcRn (extracellular domain of the human FcRn heavy chain fused with β2-microglobulin via a flexible peptide linker) (human) (UniProt P55899); assay: SPR, scFcRn immobilised, pH 6.0
[7] = target: Soluble single-chain FcRn (extracellular domain of the human FcRn heavy chain fused with β2-microglobulin via a flexible peptide linker) (human) (UniProt P55899); assay: SPR (BIACORE X), scFcRn amine-coupled to CM5 chip, antibody 25-400 nM as analyte, pH 6.0, two-state reaction model; Run 3
[8] = target: Soluble single-chain FcRn (extracellular domain of the human FcRn heavy chain fused with β2-microglobulin via a flexible peptide linker) (human) (UniProt P55899); assay: SPR (BIACORE X), scFcRn on CM5 chip, pH 6.0, two-state reaction model; mean of 3 runs, S.D. 2.72 × 10^4
[9] = target: Soluble single-chain FcRn (extracellular domain of the human FcRn heavy chain fused with β2-microglobulin via a flexible peptide linker) (human) (UniProt P55899); assay: SPR (BIACORE X), scFcRn on CM5 chip, pH 6.0, two-state reaction model; mean of 3 runs, S.D. 1.5
[10] = target: CD22 on cells (B cells in PBMCs, Daudi, D1-1 cells) (human) (UniProt P20273); assay: cell-based or functional assay

Sequence of CD20 on cells (Daudi cells, B cells in PBMCs) (human) (P11836 whole entry, the tested form may be a part): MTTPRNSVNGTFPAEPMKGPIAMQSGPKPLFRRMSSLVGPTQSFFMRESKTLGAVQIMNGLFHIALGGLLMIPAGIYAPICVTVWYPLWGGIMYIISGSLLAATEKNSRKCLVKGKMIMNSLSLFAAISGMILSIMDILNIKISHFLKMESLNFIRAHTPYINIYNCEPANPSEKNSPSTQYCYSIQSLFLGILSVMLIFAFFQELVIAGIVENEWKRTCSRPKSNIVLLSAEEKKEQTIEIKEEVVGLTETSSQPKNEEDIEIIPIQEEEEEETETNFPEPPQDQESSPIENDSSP

Kd [2]: 267 nM | Kd [7]: 352 nM
Molecule: 22-(20)-(20), Fc-based anti-CD22/CD20 bispecific hexavalent antibody (CH3-AD2-IgG-epratuzumab conjugated with CH1-DDD2-Fab-veltuzumab) (bispecific antibody)

Kd [2]: 17.9 nM | Kd [3]: 15 nM | Kd [9]: 16.3 nM | Kd [7]: 15.8 nM
Molecule: Epratuzumab (humanized anti-CD22 IgG1κ) (antibody)

CD22 level on the surface of B cells in PBMCs (% of isotype control MFI), 10 µg/mL [10]: 45 % control
B1: F(ab′)2 fragment of epratuzumab (protein, INN chains, looked up)
VH: QVQLVQSGAEVKKPGSSVKVSCKASGYTFTSYWLHWVRQAPGQGLEWIGYINPRNDYTEYNQNFKDKATITADESTNTAYMELSSLRSEDTAFYFCARRDITTFYWGQGTTVTVSS
VL: DIQLTQSPSSLSASVGDRVTMSCKSSQSVLYSANHKNYLAWYQQKPGKAPKLLIYWASTRESGVPSRFSGSGSGTDFTFTISSLQPEDIATYYCHQYLSSWTFGGGTKLEIK
modifications: F(ab')2

More lines, now with the values behind:

Molecule: 20*-2b (Ck-AD2-IgG-veltuzumab conjugated with IFNα2b-DDD2) (from UniProt P01563 24-188)
cytotoxicity in Daudi cells, EC50 (MTS assay, 3 days) [1]: 200 nM

Molecule: 20-2b (CH3-AD2-IgG-veltuzumab conjugated with IFNα2b-DDD2) (from UniProt P01563 24-188)
cytotoxicity in Daudi cells, EC50 (MTS assay, 3 days) [1]: 200 nM

Molecule: 22*-(20)-(20), anti-CD22/CD20 bispecific hexavalent antibody (Ck-AD2-IgG-epratuzumab conjugated with CH1-DDD2-Fab-veltuzumab) (bispecific antibody)
Kd [2]: 179 nM | koff [2]: 0.0404 s⁻¹ | kon [2]: 226000 M⁻¹ s⁻¹ | Kd [3]: 141 nM | koff [3]: 0.0395 s⁻¹ | kon [3]: 280000 M⁻¹ s⁻¹ | koff [4]: 0.0413 s⁻¹ | Kd [5]: 166 nM | Kd [6]: 155 nM | fold stronger binding affinity than 22-(20)-(20) [6]: 2 fold | Kd [7]: 178 nM | koff [7]: 0.0441 s⁻¹ | kon [7]: 248000 M⁻¹ s⁻¹ | kon [8]: 251000 M⁻¹ s⁻¹
